Source: patent US20220064331A1 (Genentech, published 2022)

T1: rhesus monkey KLB (+N-ter FLAG) (rhesus monkey, UniProt Q86Z14 53-992 (human entry))
T1 construct: expressed from KLB cDNA on HEK293T cells and read by FACS
T1 chain: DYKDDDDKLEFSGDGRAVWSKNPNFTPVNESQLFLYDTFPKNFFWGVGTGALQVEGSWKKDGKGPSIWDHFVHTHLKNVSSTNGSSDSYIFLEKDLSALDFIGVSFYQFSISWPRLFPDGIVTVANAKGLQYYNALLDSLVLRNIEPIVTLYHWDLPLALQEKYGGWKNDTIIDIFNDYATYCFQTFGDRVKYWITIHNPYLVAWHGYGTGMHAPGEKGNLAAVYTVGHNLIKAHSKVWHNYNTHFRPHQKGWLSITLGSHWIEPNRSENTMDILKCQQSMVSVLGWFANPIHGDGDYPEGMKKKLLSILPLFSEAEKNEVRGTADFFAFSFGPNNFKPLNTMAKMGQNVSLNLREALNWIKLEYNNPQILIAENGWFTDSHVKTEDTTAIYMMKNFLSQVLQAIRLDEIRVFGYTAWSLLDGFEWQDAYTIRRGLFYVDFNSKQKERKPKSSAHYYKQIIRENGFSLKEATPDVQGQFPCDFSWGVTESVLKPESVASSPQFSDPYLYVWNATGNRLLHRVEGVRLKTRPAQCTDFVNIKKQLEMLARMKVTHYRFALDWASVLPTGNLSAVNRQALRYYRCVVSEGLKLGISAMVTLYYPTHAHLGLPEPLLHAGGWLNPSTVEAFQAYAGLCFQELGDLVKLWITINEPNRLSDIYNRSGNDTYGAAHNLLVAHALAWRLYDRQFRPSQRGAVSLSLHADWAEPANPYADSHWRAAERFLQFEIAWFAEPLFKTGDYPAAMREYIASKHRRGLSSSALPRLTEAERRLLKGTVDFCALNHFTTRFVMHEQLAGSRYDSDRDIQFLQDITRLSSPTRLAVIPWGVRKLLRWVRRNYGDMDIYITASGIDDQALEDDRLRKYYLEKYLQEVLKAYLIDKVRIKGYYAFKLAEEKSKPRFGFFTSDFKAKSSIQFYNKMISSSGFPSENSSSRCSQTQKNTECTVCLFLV

T2: rat KLB (+N-ter FLAG) (rat, UniProt Q99N32 53-989 (mouse entry))
T2 construct: expressed from KLB cDNA on HEK293T cells and read by FACS
T2 chain: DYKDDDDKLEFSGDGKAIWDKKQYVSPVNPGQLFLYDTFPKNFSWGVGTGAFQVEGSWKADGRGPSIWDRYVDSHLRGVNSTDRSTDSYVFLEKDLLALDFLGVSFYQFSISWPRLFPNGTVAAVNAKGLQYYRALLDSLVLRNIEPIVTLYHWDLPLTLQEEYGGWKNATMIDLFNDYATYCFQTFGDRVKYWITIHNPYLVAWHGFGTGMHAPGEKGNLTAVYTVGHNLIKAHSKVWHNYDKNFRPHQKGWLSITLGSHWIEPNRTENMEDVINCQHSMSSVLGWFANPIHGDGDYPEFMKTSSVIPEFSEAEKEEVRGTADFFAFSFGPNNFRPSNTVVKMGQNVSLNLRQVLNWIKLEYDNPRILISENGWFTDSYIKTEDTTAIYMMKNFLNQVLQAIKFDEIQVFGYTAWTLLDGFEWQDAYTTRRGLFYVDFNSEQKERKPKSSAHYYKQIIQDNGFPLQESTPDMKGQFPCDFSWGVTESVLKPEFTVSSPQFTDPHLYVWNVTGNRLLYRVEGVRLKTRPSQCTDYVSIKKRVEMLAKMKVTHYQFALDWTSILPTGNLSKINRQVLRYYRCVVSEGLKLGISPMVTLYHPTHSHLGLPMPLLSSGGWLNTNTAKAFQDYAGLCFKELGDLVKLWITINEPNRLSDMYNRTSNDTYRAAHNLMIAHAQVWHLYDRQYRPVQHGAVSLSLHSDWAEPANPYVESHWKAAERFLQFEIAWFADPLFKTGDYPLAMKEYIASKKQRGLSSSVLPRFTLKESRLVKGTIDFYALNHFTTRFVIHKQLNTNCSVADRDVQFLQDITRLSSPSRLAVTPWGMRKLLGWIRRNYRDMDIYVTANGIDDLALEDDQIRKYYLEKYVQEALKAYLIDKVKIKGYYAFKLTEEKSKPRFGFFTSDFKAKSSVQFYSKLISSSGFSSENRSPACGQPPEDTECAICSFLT

T3: rabbit KLB (+N-ter FLAG) (rabbit)
T3 construct: expressed from KLB cDNA on HEK293T cells and read by FACS
T3 chain: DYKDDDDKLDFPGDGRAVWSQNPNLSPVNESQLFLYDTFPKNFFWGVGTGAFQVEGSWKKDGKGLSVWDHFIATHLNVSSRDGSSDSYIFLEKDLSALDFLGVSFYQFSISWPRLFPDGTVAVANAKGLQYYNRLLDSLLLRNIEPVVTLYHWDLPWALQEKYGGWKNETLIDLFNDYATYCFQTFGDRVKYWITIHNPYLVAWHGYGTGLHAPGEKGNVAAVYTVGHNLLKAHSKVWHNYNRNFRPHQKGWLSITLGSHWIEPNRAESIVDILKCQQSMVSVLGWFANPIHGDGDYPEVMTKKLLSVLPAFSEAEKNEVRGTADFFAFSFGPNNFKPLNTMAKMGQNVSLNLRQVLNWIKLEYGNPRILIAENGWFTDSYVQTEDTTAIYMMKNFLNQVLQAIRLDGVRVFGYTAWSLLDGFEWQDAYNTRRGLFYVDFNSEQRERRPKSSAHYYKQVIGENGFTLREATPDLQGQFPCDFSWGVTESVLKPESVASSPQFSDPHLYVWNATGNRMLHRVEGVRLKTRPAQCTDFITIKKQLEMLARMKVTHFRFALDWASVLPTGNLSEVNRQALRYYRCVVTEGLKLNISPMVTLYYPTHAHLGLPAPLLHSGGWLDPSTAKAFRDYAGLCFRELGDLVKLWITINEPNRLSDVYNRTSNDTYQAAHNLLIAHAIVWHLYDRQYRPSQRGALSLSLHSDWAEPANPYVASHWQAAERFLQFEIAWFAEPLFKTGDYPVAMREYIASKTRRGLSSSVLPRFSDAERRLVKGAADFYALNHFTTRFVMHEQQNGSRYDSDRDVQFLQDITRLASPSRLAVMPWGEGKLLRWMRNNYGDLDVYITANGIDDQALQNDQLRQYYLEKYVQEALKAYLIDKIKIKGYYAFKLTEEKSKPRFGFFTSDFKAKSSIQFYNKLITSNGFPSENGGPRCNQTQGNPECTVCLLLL


Assays:
Assay in all cases: FACS on transfected HEK293T cells
[1] = biological target: T1, rhesus monkey KLB (+N-ter FLAG)
Method: (§1) Species cross reactivity of the disclosed anti-KLB antibodies were analyzed by FACS analysis using KLB cDNA from mouse, rat, rabbit, cynomolgus monkey and rhesus monkey cloned into pRK mammalian expression vectors transiently transfected into HEK293T cells. The KLB extracellular domain polypeptide sequences that were expressed are as follows: […]

rat KLB (+N-ter FLAG) = biological target: T2, rat KLB (+N-ter FLAG)
Method: as §1

rabbit KLB (+N-ter FLAG) = biological target: T3, rabbit KLB (+N-ter FLAG)
Method: as §1

Binder | binding result [1] | binding result (rat KLB (+N-ter FLAG)) | binding result (rabbit KLB (+N-ter FLAG))
24A1 (antibody, V domains shown, murine hybridoma-derived anti-KLB antibody) VH: QVQLKQSGAELVRPGTSVTLSCKASGYTFTDYEMHWMKQTPVYGLEWIGAIWPENADSVYNQKFKGKVTLTADKSSSTAYMDLRSLTSEDSAVYYCTREGGNYWGQGTTLTVSS VL: not shown | binds | binds | binds
8E1 (antibody, V domains shown, murine hybridoma-derived anti-KLB antibody) VH: EVQLQQSGAELVKPGASVKLSCTAADFNIKDTYMHWVKQRPEQGLEWIGRIDPSNGNAKYDPKFQGKASITADSSSNTAYLHLSSLTSEDTAVYYCASRALGNGYALGYWGQGTSVTVSS VL: DIQMTQSSSYLSVSLGGSVTITCKASDHINNWLAWYQQKPGNAPRLLIYGTTNLETGVPSRFSGSGSGRDYILSITSLQSEDVASYYCQQYWNTPFTFGSGTKLEIK | binds | no binding | binds
5F8 (antibody, V domains shown, murine hybridoma-derived anti-KLB antibody) VH: EVQLQQSGTELVRPGASVKLSCTSSDFNIKDTYIHWVKQRPEQGLDWLGRIDPANGNTKYDPKFQGKAAMTSDTSSNTAYLRLSSLTSEDTAVYYCASSGNYGAMDYWGQGTSVTVSS VL: ESVLTQSPALMSASLGEKVTMTCRASSSVNHMYWYQQKSDASPKLWIYYTSTLAPGVPARFSGSGSGNSYSLTISSMEGEDAATYYCQQFTISPSMYTFGGGTKLEIK | binds | no binding | binds
12B8 (antibody, V domains shown, murine hybridoma-derived anti-KLB antibody) VH: QIQLVQSGPELKKPGETAKISCKASGYAFSNYGMNWVKQAPGKDLKWMGWIDTDTGEATYTDDFKGRFVFSLETSASTAYLQINNLKNEDMATYFCAREEYGLFGFPYWGHGTLVTVSA VL: DIQMTQSSSSFSVSLGDRVTITCKASEDIYNRLAWYQQKPGSAPRLLISAATSLETGVPSRFSGSGSGKDYTLSITSLQTEDVATYYCQQYWSNPLTFGAGTKLEIK | binds | no binding | binds
8C5 (antibody, V domains shown, murine hybridoma-derived anti-KLB antibody; also called KLBmAb1) VH: QVQLKQSGPGLVQPSQSLSVACTVSDFSLTTYGVHWVRQSPGKGLEWLGVIWSGGSTDYNAAFISRLTISKDNSKSQVFFKMNSLQTTDTAIYYCARDYGSTYVDAIDYWGQGTSVTVSS VL: DIVLTQSPTSLAVSLGQRATISCRASESVESYGNRYMTWYQQKPGQPPKLLIYRAANLQSGIPARFSGSGSRTDFTLTIDPVEADDVATYYCQQSNEDPWTFGGGTKVEIK | binds | binds | no binding

Results, then the binder that gave them:

binding result [1] | binding result (rat KLB (+N-ter FLAG)) | binding result (rabbit KLB (+N-ter FLAG)) | Binder
binds | binds | binds | 14C6 (antibody, V domains shown, murine hybridoma-derived anti-KLB antibody) VH: QIQLQQSGAELMKPGASVRMSCKASGYTFSSYWIEWVKQRSGHGLEWIGEIFPGGGSTIYNENFRDKATFTADTSSNTAYMQLSSLTSEDSAVYFCARRGYYDAAWFDYWGQGTLVTVSA VL: QIVLTQSPAIMSASPGERVTLTCSASSSLSSSYLYWYQQKPGSSPKLWIYGASNLASGVPGRFSGSGSGTSYSLTISSMEAEDAASYFCHQWSSYPLTFGSGTKLELK
binds | no binding | binds | 12A11 (antibody, V domains shown, murine hybridoma-derived anti-KLB antibody; also called KLBmAb2) VH: EVKFLESGGGLVQPGGSLRLSCAVSGIDFSRYWMSWVRQAPGKGLEWIGEISPDSSTINYTPSLKDKFVISRDNAKNTLYLQMSKVRSADTALYYCARPSPALDYWGQGTLVTVSA VL: DIVMTQSPATLSVTPGDRVSLSCRASQSISDYVYWYQQKSHESPRLLIIYASQSISGIPSRFSGSGSGSDFTLSINSVEPEDVGVYYCQNGHNFPYTFGGGTKLEIK
binds | no binding | binds | 8H7 (antibody, V domains shown, murine hybridoma-derived anti-KLB antibody) VH: QVQLQQPGAEIVKPGASVRLSCKASGYSFTSYWIHWVKQRPGQGLEWIGEIDPSVSNSNYNQKFKGKATLTADKSSSTAYMQLSGLTSEDSAVYFCVRLGVMVYGSSPFWFAYWGQGTLVTVSA VL: DIVMTQSQKFMSTSVGDRVSITCKASQFVSDAVAWYQQKPGQSPKLLICSASYRYTGVPDRFTGSGSGTDFTFTISSVRTEDLAVYYCQQHYIVPYTFGGGTTLEIE
binds | no binding | – | 25F7 (antibody, V domains shown, murine hybridoma-derived anti-KLB antibody) VH: EVQLQQSGAELLKPGASVRLSCTASGFNIQDTFTHWVRQRPEQGLEWIGRIDPSNGNTKYDPKFQGKAKILADTSSNTAYLQLIGLTSEDTAVYYCASRALGNGYAMDYWGQGTSVTVSS VL: DIQMTQSSSYLSVSLGGRVTITCKASDHINNWLAWYQQKPGNAPRLLISGASNLETGIPSRFSGSGSGKDYTLTITSLQTEDVATYYCQQYWNTPFTFGSGTKLEIK
binds | no binding | binds | 14C10 (antibody, V domains shown, murine hybridoma-derived anti-KLB antibody; also called KLBmAb3) VH: QVTLKESGPGILQPSQTLSLTCSFSGFSLSTSAMGIGWIRQPSGKGLEWLAHIWWDDDKRYNPALKSRLTISKDTSRNQVFLKIASVDTADTATYFCARIDGIYDGSFYAMDYWGQGTSVTVSS VL: DIVLTQSPASLAVSLGQRATISCRASESVDSYGNSFMHWYQQKPGQPPKLLIYRASNLESGIPARFSGSGSRTDFTLTINPVEADDVANYYCQQSNEDYTFGGGTKLEIK
